T1: SARS-CoV-2 C14S,C23S,C73S NSP9 (triSer-NSP9) (SARS-CoV-2, UniProt P0DTC1 4141-4253)
T1 construct: also called NSP (dissolved in ammonium acetate); INS (dissolved in DMSO and diluted in PBS)
T1 chain: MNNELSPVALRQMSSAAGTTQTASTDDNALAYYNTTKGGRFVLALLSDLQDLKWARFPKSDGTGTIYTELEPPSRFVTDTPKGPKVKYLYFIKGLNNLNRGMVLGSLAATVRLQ

T2: SARS-CoV-2 C14S,C23S,C73S NSP9 (triSer-Nsp9) (SARS-CoV-2, UniProt P0DTC1 4141-4253)
T2 construct: also called NSP (dissolved in ammonium acetate); INS (dissolved in DMSO/PBS)
T2 chain: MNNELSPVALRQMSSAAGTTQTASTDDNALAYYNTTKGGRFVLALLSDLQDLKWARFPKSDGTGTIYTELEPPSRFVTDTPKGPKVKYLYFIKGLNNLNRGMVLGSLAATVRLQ

B1: 3NSP29 (VHH)
VHH: QVQLQESGGGLVQAGGSLRLSCAASGRTFSRYAMGWFRQAPGKERESVAAINWSGTSIFYANSVEGRFTISRDNAKNTVYLQLNSLKPEDTAVYYCGVVLNGMPYWGRGTQVTVSS
B2: 2INS64 (VHH)
VHH: QVQLQESGGGLVQVGGSLRLSCAASGSILSINAMGWYRQAPGKQRELVAAITSGGSTNYADSVKGRFTISRDNAKNMLYLQMNSLKPEDTAVYYCHVVTGWGPLDWGQGTQVTVSS
B3: 3NSP52 (VHH)
VHH: QVQLQESGGGLVQPEGSLRLSCAASGLTFDSYAIGWFRQAPGKEREFVAASIWSGDSGHYTGSVKGRFTISRDNAKNTVDLQMNSLKPEDTAVYYCAASASFLHSANYHMRAKWGYWGQGTQVTVSS
B4: 3NSP78 (VHH)
VHH: QVQLQESGGGLVQAGGSLRLSCAASGRAFSSYVMGWFRQAPGKEREFVAAIHWTGAATVYVDSVKGRFAISRHNAKNTVYLEMNSLKPEDTAVYYCAADPSGSYWPPKRYDYWGQGTQVTVSS
B5: 2NSP23 (VHH)
VHH: QVQLQESGGGLVQPGGSLRLSCAASGLAFSMYTMGWFRQAPGKEREFVAMIISSGDSTDYADSVKGRFTISRDNGKNTVYLQMDSLKPEDTAVYYCAAPKFRYYFSTSPGDFDSWGQGTQVTVSS
B6: 2INS61 (VHH)
VHH: QVQLQESGGGLVQAGGSLRLSCAASGSIFSINTMGWYRQAPGKQRELVAAITSGGSTNYADSVKGRFTISRDNAKNTVHLQMNSLKPEDTAVYYCNVVEGWGPPVGYWGQGTQVTVSS
B7: 3INS39 (VHH)
VHH: QVQLQESGGGLVQAGGSLRVSCEVSGIMFGINTMGWYRQAPGKQRELVAHITSSGSTNYADSVKGRFTISRDNAKKTVYLQMNSLKPEDTAVYYCNVVAGWGPPPGYWGQGTQVTVSS
B8: 2NSP90 (VHH)
VHH: QVQLQESGGGLVQTGDSLRLSCAVSGRTFSTYSVGWFRQAPGKEREFVALRWSGGTTYYADSVVGRFTVSRDNAKNTVYLEMNSLKPEDTAVYYCAADRGSGSYSPTYRWDYWGQGTQVTVSS
B9: 2INS69 (VHH)
VHH: QVQLQESGGGLVRAGDSLRLSCAVSGRTFSSVAMGWFRQAPGKEREFVAFISGSTGSVTYYADSVKGRFAISRDNAKNTVYLQMNSLKPEDTAVYDCAAKFTGTFNYQGLYDYWGQGTQVTVSS
B10: 3NSP56 (VHH)
VHH: QVQLQESGGGLVQAGGSLRLSCAASGRTFSRYAMGWFRQAPGKERESVAAINWSGTSIFYANSVEGRFTISRDNAKNTVYLQLNSLKPEDTAVYYCAADLVRNYRLGWGDGVYDHYGQGTQVTVSS
B11: 2INS27 (VHH)
VHH: QVQLQESGGGLVQAGGSLRLSCATSGSIFSSAVMGWYRQAPGNERELVALIGSSDTTDYSNSVKGRFTISRDNAKNTAYLRMNSLKPEDTAVYYCTAVKYGLGGFVYWGQGTQVTVSS
B12: 2INS45 (VHH)
VHH: QVQLQESGGGLVQAGGSLRLSCAASGFTLSSNDMGWYRQAPGKQRELVATITSGLSTNYADSVKGRFTISRDNAKNTVFLQMNSLKIEDTAVYYCEVERGWGPPRDYWGHGTQVTVSS

What was measured:
[1] = target: T1, SARS-CoV-2 C14S,C23S,C73S NSP9 …; assay: ELISA signal on INS over uncoated blocked well
[2] = target: T1, SARS-CoV-2 C14S,C23S,C73S NSP9 …; assay: ELISA signal on NSP over uncoated blocked well
[3] = target: T2, SARS-CoV-2 C14S,C23S,C73S NSP9 …; assay: ELISA signal on NSP over uncoated blocked blank
[4] = target: T2, SARS-CoV-2 C14S,C23S,C73S NSP9 …; assay: ELISA, periplasmic extract; Nsp9 in DMSO/PBS (INS) coated
[5] = target: T2, SARS-CoV-2 C14S,C23S,C73S NSP9 …; assay: ELISA, periplasmic extract; Nsp9 in ammonium acetate (NSP) coated
[6] = target: T2, SARS-CoV-2 C14S,C23S,C73S NSP9 …; assay: ELISA signal on INS over uncoated blocked blank

Binder	INS/control [1]	NSP/control [2]	NSP/control [3]	ELISA INS [4]	ELISA NSP [5]	INS/control [6]
B1	1.84	3.85	–	–	–	–
B2	26.7	45.2	–	–	–	–
B3	–	–	34.2	2	2.91	23.6
B4	28.6	47.2	–	–	–	–
B5	–	–	41.8	1.72	4.28	16.8
B6	–	–	8.02	1.84	5.36	2.75
B7	–	–	4.42	2.49	4.07	2.7
B8	–	–	50.8	1.98	4.78	21
B9	14.1	13.8	–	–	–	–
B10	2.61	5.47	–	–	–	–
B11	–	–	28.9	3	2.77	31.3
B12	26.9	45	–	–	–	–

— patent US20240301039A1 (NEW YORK UNIVERSITY IN ABU DHABI, published 2024)
